Laboratory results as given in paper PMC7954794, “Protein context shapes the specificity of SH3 domain-mediated interactions in vivo” (Nature Communications, 2021).

How the values were obtained:
BBC1 = assay: DHFR-PCA on solid medium, bait BBC1 (Fig. 1B); format: cell-based, Saccharomyces cerevisiae; conditions: bait BBC1, label = prey
Source text: Supplement 41467_2021_21873_MOESM8_ESM.xlsx, sheet "Fig1B" | column: medsize; medrep; Ratio; Score

Abp1 (1xFLAG) = assay: Western blot expression level of Abp1 SH3 mutants (Fig. S3C-D); format: cell-based, Saccharomyces cerevisiae
Description: Precultures of yeast cells expressing baits fused with the DHFR F[1,2]-FLAG were grown overnight at 30 °C with agitation in synthetic complete medium. The next day, cells were expanded in synthetic complete medium to reach their exponential phase (OD600 of around 1.0), pelleted, and frozen at −80 °C. The equivalent of fifty OD600 of cells was resuspended in ice-cold yeast lysis buffer (10 mM Tris-HCl pH 7.4, 150 mM NaCl, 0.5 mM EDTA (Millipore Sigma), 1% Triton X-100 (Millipore Sigma), and one cOmplete Mini Protease Inhibitor Cocktail (Millipore Sigma) per 10 mL) with […] glass beads (Millipore Sigma) and disrupted at 4 °C by 10 cycles of 2 min vortexing and 2 min cooldown. The equivalent of […] of lysed cells was used for the immunoprecipitation of the bait proteins using FLAG-M2 agarose beads (Millipore Sigma). The beads were incubated with the cell lysates for 120 min at 4 °C with a slow rotation, followed by three washes with the yeast lysis buffer.
Protein extracts and affinity-purified baits from yeast and human lysed cells were migrated on 10% polyacrylamide gels. The separated proteins were then transferred to nitrocellulose membranes. Validation of correct protein loading was done with ponceau staining of the membranes. Before the primary antibody incubations, membranes were blocked in 5% milk. Protein signals were detected on an Amersham Imager 600RGB (GE Healthcare) following the incubation of the membranes with the appropriate HRP-conjugated secondary antibodies and the Clarity Western ECL Substrate (Bio-Rad). The antibodies used in this study are M2-HRP (A8592, Sigma, 1/50,000), rabbit anti-FLAG (F7425, Sigma, 1/1000), PAK (SC-881, Santa Cruz, 1/200), p130cas/BCAR1 (SC-860, Santa Cruz, 1/200), actin (Cell Signaling Technology, 1/2000), anti-mouse HRP (Cell Signaling Technology, 1/10,000) and anti-rabbit HRP (Cell Signaling Technology, 1/10,000). The quantification of the WB signals was performed with the Amersham Imager 600 analysis software (GE Healthcare). […]
C, WB comparing expression levels of selected Abp1 SH3 mutants with WT Abp1. An asterisk represents a stop codon, which inhibits translation of the 1xFLAG epitope. D, Quantification of the relative level of expression of Abp1 SH3 mutants by WB as in C, (log2 of Abp1 SH3 mutant/Abp1 WT ratio, WB relative level of expression of 0 for WT Abp1) compared to their DMS scores (Hua2 (left): Pearson’s r = -0.34, p-value = 0.46, Lsb3 […]
(right): Pearson’s r = -0.81, p-value = 0.03). […]
Most […]
interface residues sensitive to mutations, such as Y7, E13, E16, V3 1, D32, D34, L48 and Y53, specifically affect Hua2 PPI. See also Supplementary Table 4.

B1: YBL039C (protein, UniProt P28274 1-579, looked up)
CTP synthase 1: MKYVVVSGGVISGIGKGVLASSTGMLMKTLGLKVTSIKIDPYMNIDAGTMSPLEHGECFVLDDGGETDLDLGNYERYLGVTLTKDHNITTGKIYSHVIAKERKGDYLGKTVQIVPHLTNAIQDWIERVAKIPVDDTGMEPDVCIIELGGTVGDIESAPFVEALRQFQFKVGKENFALIHVSLVPVIHGEQKTKPTQAAIKGLRSLGLVPDMIACRCSETLDKPTIDKIAMFCHVGPEQVVNVHDVNSTYHVPLLLLEQKMIDYLHARLKLDEISLTEEEKQRGLELLSKWKATTGNFDESMETVKIALVGKYTNLKDSYLSVIKALEHSSMKCRRKLDIKWVEATDLEPEAQESNKTKFHEAWNMVSTADGILIPGGFGVRGTEGMVLAARWARENHIPFLGVCLGLQIATIEFTRSVLGRKDSHSAEFYPDIDEKNHVVVFMPEIDKETMGGSMRLGLRPTFFQNETEWSQIKKLYGDVSEVHERHRHRYEINPKMVDELENNGLIFVGKDDTGKRCEILELKNHPYYIATQYHPEYTSKVLDPSKPFLGLVAASAGILQDVIEGKYDLEAGENKFNF
BBC1; 2-4 replicates
  medrep (log2 median colony size normalized to plate background, PCA score): 2.387
BBC1; only significant differences showed, PPIs completely lost have a ratio of 0.1 and the gained PPIs 2.5
  Ratio (SH3-deleted/WT medrep): 0.1

B2: WT (protein, UniProt P15891 2-592, looked up)
Actin-binding protein: ALEPIDYTTHSREIDAEYLKIVRGSDPDTTWLIISPNAKKEYEPESTGSSFHDFLQLFDETKVQYGLARVSPPGSDVEKIIIIGWCPDSAPLKTRASFAANFAAVANNLFKGYHVQVTARDEDDLDENELLMKISNAAGARYSIQTSSKQQGKASTPPVKKSFTPSKSPAPVSKKEPVKTPSPAPAAKISSRVNDNNDDDDWNEPELKERDFDQAPLKPNQSSYKPIGKIDLQKVIAEEKAKEDPRLVQKPTAAGSKIDPSSDIANLKNESKLKRDSEFNSFLGTTKPPSMTESSLKNDDDKVIKGFRNEKSPAQLWAERKAKQNSGNAETKAEAPKPEVPEDEPEGEPDVKDLKSKFEGLAASEKEEEEMENKFAPPPKKSEPTIISPKPFSKPQEPVKAEEAEQPKTDYKKIGNPLPGMHIEADNEEEPEENDDDWDDDEDEAAQPPLPSRNVASGAPVQKEEPEQEEIAPSLPSRNSIPAPKQEEAPEQAPEEEIEEEAEEAAPQLPSRSSAAPPPPPRRATPEKKPKENPWATAEYDYDAAEDNELTFVENDKIINIEFVDDDWWLGELEKDGSKGLFPSNYVSLGN
Abp1 (1xFLAG); Western blot Flag signal of mutant relative to WT
  Ratio Mutant/WT Flag: 1
Abp1 (1xFLAG); Western blot, Flag signal, 2 bands
  Flag (2 bands): 36554
